The target in series [1] is SET/TAF-Ibeta (Homo sapiens, UniProt Q01105-2 1-277). Kind of series: NMR; 10 mM sodium phosphate pH 7.4; NMR: 10 mM sodium phosphate pH 7.4, 1 mM ascorbate, 1 mM TCEP, 5% D2O, 25 C; optical tweezers: 25 mM HEPES, 50 mM KCl, 0.1 mM EDTA, pH 7.5. The settings on record: protein: recombinant; tags: N-terminal 6xHis; chain copies: 2; blunt.
For series [2], the target named is histone H3 (Xenopus laevis, UniProt P84233 1-136). Nature of the series: NMR; H3 competes with Cc for dsDNA; NMR: 10 mM sodium phosphate pH 7.4, 1 mM ascorbate, 1 mM TCEP, 5% D2O, 25 C; optical tweezers: 25 mM HEPES, 50 mM KCl, 0.1 mM EDTA, pH 7.5. The settings on record: protein: recombinant; blunt.
The target of series [3] is cytochrome c (Homo sapiens, UniProt P99999 2-105). Nature of the series: NMR; reduced Cc 13 uM, dsDNA 26 uM; Met80 signal decreased on dsDNA addition; NMR: 10 mM sodium phosphate pH 7.4, 1 mM ascorbate, 1 mM TCEP, 5% D2O, 25 C; optical tweezers: 25 mM HEPES, 50 mM KCl, 0.1 mM EDTA, pH 7.5. The settings on record: protein: recombinant; blunt.
Sequence of cytochrome c (P99999 2-105): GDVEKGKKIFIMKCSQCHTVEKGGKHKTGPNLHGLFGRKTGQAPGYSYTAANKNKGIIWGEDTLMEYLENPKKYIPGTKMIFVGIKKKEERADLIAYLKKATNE

Sequence of SET/TAF-Ibeta (Q01105 other isoform, or with tags, fused parts or gaps): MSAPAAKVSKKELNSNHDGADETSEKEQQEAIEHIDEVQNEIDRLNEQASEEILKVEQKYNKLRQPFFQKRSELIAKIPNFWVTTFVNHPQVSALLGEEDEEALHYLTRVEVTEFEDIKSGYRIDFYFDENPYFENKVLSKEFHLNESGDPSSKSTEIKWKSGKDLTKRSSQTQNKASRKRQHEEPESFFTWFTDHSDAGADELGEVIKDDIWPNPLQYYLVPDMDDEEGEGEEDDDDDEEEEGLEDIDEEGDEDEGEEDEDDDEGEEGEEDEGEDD

B1: 10-mer dsDNA (dsDNA)
DNA 1: TAGCGTAACG
DNA 2: CGTTACGCTA
Consider B1, for which the binding result in series [1] is reported as “no binding”; in series [2] it was “binds”; in series [3], “binds”.

(Values after paper PMC10582448, “The Histone Chaperones SET/TAF‐1β and NPM1 Exhibit Conserved Functionality in Nucleosome Remodeling and Histone Eviction in a Cytochrome c‐Dependent Manner”.)
